Assay results: US20210292396A1

Legend:
Test in all cases: cell-based or functional assay
[1] = biological target: Env of HIV isolate DU156.12 (clade C) (HIV)
[2] = biological target: HIV Env of isolate 001428-2.42 (HIV)
[3] = biological target: Env of HIV isolate ZM109.4 (clade C) (HIV)
[4] = biological target: HIV Env of isolate DU123.06 (HIV)
[5] = biological target: Env of HIV isolate Q769.d22 (clade A) (HIV)
[6] = biological target: Env of HIV isolate 45_01dG5 (clade B) (HIV)
[7] = biological target: Env of HIV isolate 001428-2.42 (clade C) (HIV)
[8] = biological target: HIV Env of isolate 16845-2.22 (HIV)
[9] = biological target: HIV Env of isolate 3168.v4.c10 (HIV)
[10] = biological target: HIV Env of isolate TZA125.17 (HIV)
[11] = biological target: Env of HIV isolate 16055-2.3 (clade C) (HIV)
[12] = biological target: Env of HIV isolate 0260.v5.c36 (clade A) (HIV)
[13] = biological target: Env of HIV isolate 25710-2.43 (clade C) (HIV)
[14] = biological target: Env of HIV isolate 3168.v4.c10 (clade C) (HIV)
[15] = biological target: Env of HIV isolate MN.3 (clade B) (HIV)
[16] = biological target: Env of HIV isolate BB539.2B13 (clade A) (HIV)
[17] = biological target: Env of HIV isolate MB539.2B7 (clade A) (HIV)
[18] = biological target: Env of HIV isolate 5768.04 (clade B) (HIV)
[19] = biological target: Env of HIV isolate A07412M1.vrc12 (clade D) (HIV)
[20] = biological target: HIV Env of isolate CNE7 (HIV)
[21] = biological target: Env of HIV isolate ZA012.29 (clade C) (HIV)
[22] = biological target: Env of HIV isolate 3637.v5.c3 (clade C) (HIV)
[23] = biological target: HIV Env of isolate 16936-2.21 (HIV)
[24] = biological target: Env of HIV isolate KER2008.12 (clade A) (HIV)
[25] = biological target: HIV Env of isolate CAP210.E8 (HIV)
[26] = biological target: Env of HIV isolate 6471.v1.c16 (clade C) (HIV)
[27] = biological target: Env of HIV isolate X2131.C1.B5 (clade G) (HIV)
[28] = biological target: Env of HIV isolate BaL.26 (clade B) (HIV)
[29] = biological target: Env of HIV isolate QH0692.42 (clade B) (HIV)
[30] = biological target: Env of HIV isolate CNE20 (clade BC) (HIV)
[31] = biological target: Env of HIV isolate CNE12 (clade B) (HIV)
[32] = biological target: HIV Env of isolate A03349M1.vrc4a (HIV)
[33] = biological target: Env of HIV isolate ZM55.28a (clade C) (HIV)
[34] = biological target: HIV Env of isolate CAP244.D3 (HIV)
[35] = biological target: Env of HIV isolate CNE7 (clade BC) (HIV)
[36] = biological target: HIV Env of isolate 25711-2.4 (HIV)
[37] = biological target: Env of HIV isolate DU151.02 (clade C) (HIV)
[38] = biological target: Env of HIV isolate 6322.v4.c1 (clade C) (HIV)
[39] = biological target: Env of HIV isolate 246-F3.C10.2 (clade AC) (HIV)
[40] = biological target: Env of HIV isolate BG1168.01 (clade B) (HIV)
[41] = biological target: Env of HIV isolate BL01.DG (clade B) (HIV)
[42] = biological target: HIV Env of isolate SO18.18 (HIV)
[43] = biological target: HIV Env of isolate CH070.1 (HIV)
[44] = biological target: Env of HIV isolate HXB2.DG (clade B) (HIV)
[45] = biological target: HIV Env of isolate DU156.12 (HIV)
[46] = biological target: Env of HIV isolate TZA125.17 (clade C) (HIV)
[47] = biological target: Env of HIV isolate MB201.A1 (clade A) (HIV)
[48] = biological target: Env of HIV isolate 288.38 (clade C) (HIV)
[49] = biological target: Env of HIV isolate 25711-2.4 (clade C) (HIV)
[50] = biological target: HIV Env of isolate 3337.v2.c6 (HIV)

B1: ePGT121.18 (ePGT121.18.H1 VH and ePGT121.17.L1 VL) (antibody, V domains shown)
VH: QMQLQESGPGLVKPGETLSLTCSVSGASISSSYWSWLRETPGKGLEWIGYTHHSGDTNYAPSLKSRVHLGLHPSKNQVSLSLTSVTAADTAVYYCARTLHGRRIYGVVAFNEYYTYFYWPTWGKGTQVTVSS
VL: SDISVAPGETVRITCGGESIGSRAVQWYQHRPGQAPRLIIYNNQDRPPGIPERFSGSPDIDFGTTATLTISNVEAGDEATYYCHIWDSRRPTNWELGPGTTLTVL
- IC50, pseudovirus neutralization [1]: 1 ng/mL
- IC80, pseudovirus neutralization (M1) [2]: 3 ng/mL
- IC80, pseudovirus neutralization (M2) [2]: 4 ng/mL
- IC50, pseudovirus neutralization [3]: 7260 ng/mL
- IC80, pseudovirus neutralization (M1) [4]: 6 ng/mL
- IC80, pseudovirus neutralization (M2) [4]: 5 ng/mL
- IC50, pseudovirus neutralization [5]: > 50000 ng/mL
- IC50, pseudovirus neutralization [6]: 1 ng/mL
- IC50, pseudovirus neutralization [7]: 1 ng/mL
- IC80, pseudovirus neutralization (M1) [8]: 127 ng/mL
- IC80, pseudovirus neutralization (M2) [8]: 105 ng/mL
- IC80, pseudovirus neutralization (M1) [9]: 34 ng/mL
- IC80, pseudovirus neutralization (M2) [9]: 45 ng/mL
- IC80, pseudovirus neutralization (M1) [10]: 137 ng/mL
- IC80, pseudovirus neutralization (M2) [10]: 186 ng/mL
- IC50, pseudovirus neutralization [11]: 11 ng/mL
- IC50, pseudovirus neutralization [12]: 2 ng/mL
- IC50, pseudovirus neutralization [13]: 4 ng/mL
- IC50, pseudovirus neutralization [14]: 12 ng/mL
- IC50, pseudovirus neutralization [15]: 2 ng/mL
- IC50, pseudovirus neutralization [16]: > 50000 ng/mL
- IC50, pseudovirus neutralization [17]: > 50000 ng/mL
- IC50, pseudovirus neutralization [18]: 4 ng/mL
- IC50, pseudovirus neutralization [19]: 3 ng/mL
- IC80, pseudovirus neutralization (M1) [20]: 8 ng/mL
- IC80, pseudovirus neutralization (M2) [20]: 7 ng/mL
- IC50, pseudovirus neutralization [21]: 2 ng/mL
- IC50, pseudovirus neutralization [22]: > 50000 ng/mL
- IC80, pseudovirus neutralization (M1) [23]: 3 ng/mL
- IC80, pseudovirus neutralization (M2) [23]: 5 ng/mL
- IC50, pseudovirus neutralization [24]: 3 ng/mL
- IC80, pseudovirus neutralization (M1) [25]: 78 ng/mL
- IC80, pseudovirus neutralization (M2) [25]: 106 ng/mL
- IC50, pseudovirus neutralization [26]: 378 ng/mL
- IC50, pseudovirus neutralization [27]: 0.9 ng/mL
- IC50, pseudovirus neutralization [28]: 2 ng/mL
- IC50, pseudovirus neutralization [29]: 6 ng/mL
- IC50, pseudovirus neutralization [30]: 1 ng/mL
- IC50, pseudovirus neutralization [31]: 2 ng/mL
- IC80, pseudovirus neutralization (M1) [32]: 7 ng/mL
- IC80, pseudovirus neutralization (M2) [32]: 11 ng/mL
- IC50, pseudovirus neutralization [33]: 5 ng/mL
- IC80, pseudovirus neutralization (M1) [34]: > 50000 ng/mL
- IC80, pseudovirus neutralization (M2) [34]: > 50000 ng/mL
- IC50, pseudovirus neutralization [35]: 3 ng/mL
- IC80, pseudovirus neutralization (M1) [36]: 5 ng/mL
- IC80, pseudovirus neutralization (M2) [36]: 6 ng/mL
- IC50, pseudovirus neutralization [37]: 1 ng/mL
- IC50, pseudovirus neutralization [38]: > 50000 ng/mL
- IC50, pseudovirus neutralization [39]: 4800 ng/mL
- IC50, pseudovirus neutralization [40]: > 50000 ng/mL
- IC50, pseudovirus neutralization [41]: 6910 ng/mL
- IC80, pseudovirus neutralization (M1) [42]: 5 ng/mL
- IC80, pseudovirus neutralization (M2) [42]: 7 ng/mL
- IC80, pseudovirus neutralization (M1) [43]: 2 ng/mL
- IC80, pseudovirus neutralization (M2) [43]: 2 ng/mL
- IC50, pseudovirus neutralization [44]: 3 ng/mL
- IC80, pseudovirus neutralization (M1) [45]: 3 ng/mL
- IC80, pseudovirus neutralization (M2) [45]: 3 ng/mL
- IC50, pseudovirus neutralization [46]: 28 ng/mL
- IC50, pseudovirus neutralization [47]: 1 ng/mL
- IC50, pseudovirus neutralization [48]: 0.8 ng/mL
- IC50, pseudovirus neutralization [49]: 2 ng/mL
- IC80, pseudovirus neutralization (M1) [50]: 1250 ng/mL
- IC80, pseudovirus neutralization (M2) [50]: 1430 ng/mL

B2: ePGT121.18.17 (ePGT121.18.H17 VH and ePGT121.17.L1 VL) (antibody, V domains shown)
VH: QMQLQESGPGLVKPGETLSLTCSVSGASISSSYWSWLRETPGKGLEWIGYTHHSGDTNYAPSLKSRVTIGLDPSKNQVSLSLTSVTAADTAVYYCARTLHGRRIYGVVAFNEYYTYFYWPTWGKGTQVTVSS
VL: SDISVAPGETVRITCGGESIGSRAVQWYQHRPGQAPRLIIYNNQDRPPGIPERFSGSPDIDFGTTATLTISNVEAGDEATYYCHIWDSRRPTNWELGPGTTLTVL
- IC50, pseudovirus neutralization [1]: 3 ng/mL
- IC80, pseudovirus neutralization [2]: 8 ng/mL
- IC50, pseudovirus neutralization [3]: 8440 ng/mL
- IC80, pseudovirus neutralization [4]: 13 ng/mL
- IC50, pseudovirus neutralization [5]: > 50000 ng/mL
- IC50, pseudovirus neutralization [6]: 3 ng/mL
- IC50, pseudovirus neutralization [7]: 4 ng/mL
- IC80, pseudovirus neutralization [8]: 629 ng/mL
- IC80, pseudovirus neutralization [9]: 171 ng/mL
- IC80, pseudovirus neutralization [10]: 549 ng/mL
- IC50, pseudovirus neutralization [11]: 36 ng/mL
- IC50, pseudovirus neutralization [12]: 9 ng/mL
- IC50, pseudovirus neutralization [13]: 8 ng/mL
- IC50, pseudovirus neutralization [14]: 53 ng/mL
- IC50, pseudovirus neutralization [15]: 4 ng/mL
- IC50, pseudovirus neutralization [16]: > 50000 ng/mL
- IC50, pseudovirus neutralization [17]: > 50000 ng/mL
- IC50, pseudovirus neutralization [18]: 29 ng/mL
- IC50, pseudovirus neutralization [19]: 4 ng/mL
- IC80, pseudovirus neutralization [20]: 17 ng/mL
- IC50, pseudovirus neutralization [21]: 5 ng/mL
- IC50, pseudovirus neutralization [22]: > 50000 ng/mL
- IC80, pseudovirus neutralization [23]: 11 ng/mL
- IC50, pseudovirus neutralization [24]: 10 ng/mL
- IC80, pseudovirus neutralization [25]: 645 ng/mL
- IC50, pseudovirus neutralization [26]: 1090 ng/mL
- IC50, pseudovirus neutralization [27]: 2 ng/mL
- IC50, pseudovirus neutralization [28]: 4 ng/mL
- IC50, pseudovirus neutralization [29]: 35 ng/mL
- IC50, pseudovirus neutralization [30]: 2 ng/mL
- IC50, pseudovirus neutralization [31]: 4 ng/mL
- IC80, pseudovirus neutralization [32]: 20 ng/mL
- IC50, pseudovirus neutralization [33]: 12 ng/mL
- IC80, pseudovirus neutralization [34]: > 50000 ng/mL
- IC50, pseudovirus neutralization [35]: 7 ng/mL
- IC80, pseudovirus neutralization [36]: 17 ng/mL
- IC50, pseudovirus neutralization [37]: 3 ng/mL
- IC50, pseudovirus neutralization [38]: > 50000 ng/mL
- IC50, pseudovirus neutralization [39]: 18500 ng/mL
- IC50, pseudovirus neutralization [40]: > 50000 ng/mL
- IC50, pseudovirus neutralization [41]: 1510 ng/mL
- IC80, pseudovirus neutralization [42]: 11 ng/mL
- IC80, pseudovirus neutralization [43]: 7 ng/mL
- IC50, pseudovirus neutralization [44]: 16 ng/mL
- IC80, pseudovirus neutralization [45]: 6 ng/mL
- IC50, pseudovirus neutralization [46]: 180 ng/mL
- IC50, pseudovirus neutralization [47]: 4 ng/mL
- IC50, pseudovirus neutralization [48]: 2 ng/mL
- IC50, pseudovirus neutralization [49]: 6 ng/mL
- IC80, pseudovirus neutralization [50]: 1340 ng/mL
